The values that follow come from the RNAGym collection of RNA variant scans (doi:10.1073/pnas.2313332121).

The labels stand for the following.
B1: TPR 5TU (parent)
chain: GGAUCUUCUCGAUCUAACAAAAAAGACAAAUCUGCCACAAAGCUUGAGAGCAUCUUCGGAUGCAGAGGCGGCAGCCUUCGGUGGCGCGAUAGCGCCAACGUUCUCAACUAUGACACGCAAAACGCGUGCUCCGUUGAAUGGAGUUUAUCAUG

This sample holds only a part of the variants without activity.

In this data set the parent is B1. The experiment in a line: polymerase ribozyme fitness, log enrichment relative to wild type (log ratio); higher = more active; in vitro selection for triplet polymerase activity. In short, it runs like this:
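Mutant libraries of each subunit of a heterodimeric triplet polymerase ribozyme were built by PCR and transcribed. Each library went through one round of in vitro selection in triplicate: annealing with biotinylated primer, partner subunit and triplets, frozen incubation at −7 °C, gel excision of extended constructs, streptavidin-bead capture and RT-PCR. Input and output libraries were Illumina-sequenced; only genotypes with ≥10 input reads and ≥1 read per output were kept. Fitness is log2(genotype enrichment/wild-type enrichment), using inverse-variance-weighted replicate averages.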
Consider GGAUCUUCUCGAGCUAAGAAAGAAGACAAAUCUGCCACAAAGCUUGAGAGCAUAUUCGGAUGCAGAGGCGGCAGCCUUCGGUGGCGCGAUAGCGCCAACCUUCUCAACUAUGACAGGCAUAACGCGUGCUCCGUUGAAUGGAGUUUCUCAUG, for which the “polymerase ribozyme fitness (log ratio)” value was no more than -4.2.
On to GGAUCUUCUCGAGCUAACAAAAAAGACAAAUCUGCCACAAAGCUUGAGAGCAUCUUCGGAUGCAGAGGCGGCAGCCUUCGGUGGCGCGAUAGCGCCAACGUUCUCCACUAUGACACGCAAAACGCGUGCUCCGUUGAAUGGAGUUUAUCAUG, for which the “polymerase ribozyme fitness (log ratio)” value was -1.83.
The same measure for GGAUCUUCUCGAGCUAACAAAAAAGACAAAUCUGCCACAAAGCUUGAGAGCAUCUUCGGUUGCAGAGGCGGCAGCCUUCGGUCGCGCGAUAGCGCCAACGUUCUCAAUUAUGACACGCAAAACGCGUGCUCCGUUGAAUGGAGUUUAUCAUG: no more than -4.2.
The same measure for GGAUCUUCUCGAGCUAACAAAAAAGACAAAUUUGCCACAAAGCUUGAGAGCAUCUUCGGAUGCAGAGGCGGCAGCCUUCGGUGGCGCCAUAGCGCCUACGUUCUCAACUAUGACACGCAAAACGCGUGCUCCGUUGAAUGGAGUUUAUCAUG: no more than -4.2.
With GGAUCUUCUCGAGCUAAUAAAAAAGAUAAAUCUGCCACAAAGCUUGAGAGCAUCUUCGGAUGCAGAGGCGGCAGCCUUCGGUGGCGCGAUAGCGUCAACGUUCUCAACUAUGACACGCAAAACGCGUGCUCCGUUGAAUGGAGUUUAUCAUG, the “polymerase ribozyme fitness (log ratio)” value was -3.43.
With GGAUCUUCUCGAGCUAACAAAAAAGACAAAUCUGCUACAAAGCUUGAGAGCGUCUUCGGAUGCAGAGGCAGCAGCCUUCGGUGUCGCGAUAGCGCCAACGUUCUCAACUAUGACACGCAAAACGCGUGCUCCGUUGAAUGGAGUUUAUCAUG, the “polymerase ribozyme fitness (log ratio)” value is -0.614.
As to GGAUCUUCUCGAGCUAACAAAAAAGACAAAUCUGCCACAAAACUUGAGGGCAUCUAAGGAUGCAGAGGCGGCAGCCUUCAGUGGCGCGAUAGCGCCAACGUUCUCAACUAUGACACGCAAAACGCGUGCUCCGUUGAAUGGAGUUUAUCAUG, the “polymerase ribozyme fitness (log ratio)” value is no more than -4.2.
Regarding GGAUCUUCUCGAGCUAAGAAAAAAGAUAAAUCUGCCACAUAGCUUGAGAGCAUCUUCGGAUGCUGAGGCGGCAGCCUUCGGUGGCGCGAUAGCGCCAACGUUCUCAACUAUGACACGCAAAACGCGUGCUCCGUUGAAUGGAGUUUAUCAUG, the “polymerase ribozyme fitness (log ratio)” value was no more than -4.2.
In the case of GGAUCUUCUCGAGCUAACAAAAAAGACAAAUCUGCCACAAAGCUUGAGAGCAUUUUCGGAUGCAGAGGCGGCAGCCUUCGGUGUCGCGAUAGCGCCAACGUUCUCAACUAUGACACGCAAAACGCGUGCUCCGUUGAAUGGAGUUUAUCAUG, the “polymerase ribozyme fitness (log ratio)” value is -2.19.
Take GGAUCUUCUCGAGCUAACAAAAAAGACAAAUCUGCCACAAAGCUUGAGAGCAUCUUCGGAUGCAGCGGCGGCAGCCUUCUGUCGCGCGAUAGCGCCAACGCUCUCAACUAUGACACGCAAAACGCGUGCUCCGUUGAACGGAGUUUAUCAUG: the “polymerase ribozyme fitness (log ratio)” value was no more than -4.2.
With GGAUCUUCUCGAGCUAACAAAAAAGACAAAUGUGCCACAACGCUUGAGAGCAUCUUCGGAUGCAGAGGCGGCAGCCUUCGGUGGCGCGAUAGCGCCAACGUUCUCAACUAUGACACGCAAAACGCGUGCUCCGUUGAAUGUAGUUUAUCAUG, the “polymerase ribozyme fitness (log ratio)” value is no more than -4.2.
With GGAUCUUCUCGAGUUAACAAAAAAGACAAAUCUGCCACAAAGCUUGAGAGCAUCUUCGGCUGCAGAGGCGGCAGCCUUCGGUGGCGCUAUAGCGCCAACGUUCUCAACUAUGACACGCAAAUCGCGUGCUCCGAUGAAUGGAGUUUAUCAUG, the “polymerase ribozyme fitness (log ratio)” value was no more than -4.2.
Regarding GGAUCUUCUCGAGCUAACAAAAAAGAUAAAUGUGCCACAAAGCUUGAGAGCAUCUGCGGAUGCAGAGGCGGCAGCCUUCGGUGGCGCGAUAGUGCCAACGUUCUCAACUAUGACACGCAAAACGCGUGCUCCGUUGAAUGGAGUUUAUCAUG, the “polymerase ribozyme fitness (log ratio)” value is no more than -4.2.
Regarding GGAUCUUCUCGAGGUAACAAAAAAGACAACUCUGCCACAAAGCUUGAGAGCAUCUUCGGAUGCAGAGGCGGCAGCCUUCAGUGGCGCGAUAGCGCCAACGUUCUCAACUAUGACACGCAAAACGCGUGCUCCGUUGUAUGGAGUUUAUCAUG, the “polymerase ribozyme fitness (log ratio)” value is no more than -4.2.
For GGAUCUUCUCGAGCUAACAAAAAAGACAAAUCUGCCACAAAGCUUGAGAGUAUCUACGGAUGCAGAGGCGGCAGCCUUCGGUGGCUCGAUAGCGCCAACGUUCUCAACUAUGACUCGCAAAACGCGUGCUCCGUUGAAUGGAGUUUAUCAUG, the “polymerase ribozyme fitness (log ratio)” value was no more than -4.2.
On to GGAUCUUCUCGAGAUAACAAAAAAGACAAAUCUGCCACAAAGCUUGAGAGCAUCUUCGGAUGCAGAGGCGGUAGCCUUCGGUAGCGCGAUAGCGCCAACGUUCUCAACUAUGACACUCAAAACGCGUGCUCCGUUGAAUGGAGUUUAUCAUG, for which the “polymerase ribozyme fitness (log ratio)” value was -2.88.
GGAUCUUCUCGAGCUAACAAAAAAGACAAAUAUGCCACAAAGCUUGAGAGCAUCUUCGGAUGCAGAGGCGGCAGCCUUCGGUGGCGCGAUAGAGCCAACGUUCUCAACUAUGACACGCAAAACGCGGGCUCCGUUGAAUGGAGUUUAUCAUG: the “polymerase ribozyme fitness (log ratio)” value is no more than -4.2.
The result for GGAUCUUCUCGAGGUAAUAAACAAGACAAAUCUGCCACAAAGCUUGAGAGCAUCUUUGAAUGCAGAGGCGGCAGACUUCGGUGGCGCGAUAGAGCCAACGUUCUCAACUAUGACACGCAAAACGCGUGCUCCGUUGAAUGGAUUUAAUCAUU reads no more than -4.2; that for GGAUCUUCUCGAGCUAACAAAAAAGACAAAUCUGCCACAAAGCUUGAGAGCAUCUUCGGAUGCAGAGGCGGCAGCCUUCGGUGGCGCGAUAGAGCCAACGUUCUCAACUAUGACACGCAAAACGCGUGCUCCGUUGAAUGUAGUUUAUCAUG, -4.01.
